± gives the standard error. For some assays here: Fewer inactive variants are shown than the library holds.
B1: glmS ribozyme (parent)
chain: AUAAAAGCGCCAGAACUACAGAAAUGUAGUUGACGAGGAGGAGGUUUAUCGAAUUUUCGGCGGAUGCCUCCAAA

Experiments:
Conditions in all cases: with glucosamine-6-phosphate
glucosamine-6-phosphate [1] = variants of: B1; test: kcat; higher = faster cleavage; RNA array
Outline: (§1)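 The measurements used barcoded ribozyme variants on sequenced MiSeq chips, transcribed in situ by E. coli RNA polymerase and tracked at 37 °C with a hybridised Cy3 probe. Glucosamine-6-phosphate, 40 μM to 10 mM in HEPES/KCl/Mg(OAc)2 buffer, was flowed in while tiles were imaged over ~14 h. Baseline-normalised signals, also normalised to non-cleaving reference variants, gave per-tile medians that were fit to one- or two-exponential decays for kobs. kcat and KM resulted from weighted Michaelis–Menten fits across concentrations.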

glucosamine-6-phosphate [2] = variants of: B1; test: KM; higher = weaker cofactor use; RNA array
Outline: as §1

glucosamine-6-phosphate [3] = variants of: B1; test: self-cleavage kobs at 640 uM GlcN6P; higher = faster cleavage; RNA array
Outline: as §1

glucosamine-6-phosphate [4] = variants of: B1; test: self-cleavage kobs at 2500 uM GlcN6P; higher = faster cleavage; RNA array
Outline: as §1

glucosamine-6-phosphate [5] = variants of: B1; test: self-cleavage kobs at 10000 uM GlcN6P; higher = faster cleavage; RNA array
Outline: as §1

glucosamine-6-phosphate [6] = variants of: B1; test: self-cleavage kobs at 40 uM GlcN6P; higher = faster cleavage; RNA array
Outline: as §1

glucosamine-6-phosphate [7] = variants of: B1; test: self-cleavage kobs at 160 uM GlcN6P; higher = faster cleavage; RNA array
Outline: as §1

Row | Variant | kcat (glucosamine-6-phosphate [1]) | KM (glucosamine-6-phosphate [2]) | self-cleavage kobs at 640 uM GlcN6P (glucosamine-6-phosphate [3]) | self-cleavage kobs at 2500 uM GlcN6P (glucosamine-6-phosphate [4]) | self-cleavage kobs at 10000 uM GlcN6P (glucosamine-6-phosphate [5]) | self-cleavage kobs at 40 uM GlcN6P (glucosamine-6-phosphate [6]) | self-cleavage kobs at 160 uM GlcN6P (glucosamine-6-phosphate [7])
1 | U30A G66U | 0.000236 ± 1.9e-05 s⁻¹ | 1720 ± 340 µM | 5.93e-05 ± 7.9e-06 s⁻¹ | 0.000159 ± 1.6e-05 s⁻¹ | 0.000195 ± 1.5e-05 s⁻¹ | – | –
2 | U30A G66A | 0.0034 ± 0.00044 s⁻¹ | 1870 ± 370 µM | 0.000751 ± 0.00018 s⁻¹ | 0.00197 ± 0.00024 s⁻¹ | 0.0029 ± 0.00037 s⁻¹ | 8.19e-05 ± 1e-05 s⁻¹ | 0.00021 ± 5.2e-05 s⁻¹
3 | A48U C50G C67A C68U | 1.99e-05 ± 2.7e-06 s⁻¹ | – | – | – | – | – | –
4 | C16G C61U C67U | < 1e-05 s⁻¹ | – | – | – | < 1e-05 s⁻¹ | < 1e-05 s⁻¹ | < 1e-05 s⁻¹
5 | A15G U54G | 0.0486 ± 0.02 s⁻¹ | 2200 ± 1000 µM | 0.00802 ± 0.0015 s⁻¹ | 0.0243 ± 0.0097 s⁻¹ | 0.0509 ± 0.011 s⁻¹ | 0.000945 ± 8.8e-05 s⁻¹ | 0.00385 ± 0.00091 s⁻¹
6 | A15G U55G | 0.0139 ± 0.0046 s⁻¹ | 683 ± 310 µM | 0.00997 ± 0.0026 s⁻¹ | 0.0187 ± 0.0059 s⁻¹ | 0.0118 ± 0.0027 s⁻¹ | 0.000914 ± 0.00013 s⁻¹ | 0.00183 ± 0.00047 s⁻¹
7 | U30A A52G | 0.00117 ± 0.00025 s⁻¹ | 5730 ± 1500 µM | 0.000114 ± 1.2e-05 s⁻¹ | 0.00054 ± 0.00022 s⁻¹ | 0.000737 ± 0.00012 s⁻¹ | – | 4.07e-05 ± 1.7e-05 s⁻¹
8 | G29C C50U | < 1e-05 s⁻¹ | – | – | – | – | – | < 1e-05 s⁻¹
9 | C16A A39U | 0.00123 ± 0.00017 s⁻¹ | 2410 ± 520 µM | 0.000287 ± 2.3e-05 s⁻¹ | 0.000654 ± 5.7e-05 s⁻¹ | 0.000937 ± 9e-05 s⁻¹ | – | 6.24e-05 ± 9.4e-06 s⁻¹
10 | A53U U55G A64C | 9.81e-05 ± 5.1e-06 s⁻¹ | 3420 ± 520 µM | – | 4.12e-05 ± 1.6e-05 s⁻¹ | 7.31e-05 ± 1.4e-05 s⁻¹ | – | –
11 | U46C C70A | 0.000216 ± 5.4e-05 s⁻¹ | – | 0.000105 ± 1.7e-05 s⁻¹ | 0.000151 ± 2.5e-05 s⁻¹ | 0.000347 ± 8.7e-05 s⁻¹ | – | 5.11e-05 ± 2.3e-05 s⁻¹
12 | G40A C70G | 0.00031 ± 9.1e-05 s⁻¹ | – | 0.000105 ± 1.9e-05 s⁻¹ | 0.000394 ± 0.00012 s⁻¹ | 0.000244 ± 6.4e-05 s⁻¹ | – | –
13 | A6U U45A | 0.000657 ± 1.8e-05 s⁻¹ | 2490 ± 130 µM | 0.000134 ± 2e-05 s⁻¹ | 0.000337 ± 6.4e-05 s⁻¹ | 0.000523 ± 7.7e-05 s⁻¹ | – | –
14 | G37A A39G | 0.00599 ± 0.00079 s⁻¹ | 3900 ± 740 µM | 0.00068 ± 0.00012 s⁻¹ | 0.00235 ± 0.0003 s⁻¹ | 0.00437 ± 0.00039 s⁻¹ | 6.85e-05 ± 7.9e-06 s⁻¹ | 0.000243 ± 4.5e-05 s⁻¹
15 | U30C A39G | 0.00121 ± 0.00015 s⁻¹ | 3930 ± 730 µM | 0.00016 ± 2.7e-05 s⁻¹ | 0.00046 ± 6.8e-05 s⁻¹ | 0.000888 ± 0.00014 s⁻¹ | – | 5.74e-05 ± 1.6e-05 s⁻¹
16 | G41U C71U | 0.000239 ± 3e-05 s⁻¹ | 885 ± 270 µM | 8.95e-05 ± 9.5e-06 s⁻¹ | 0.000227 ± 2.9e-05 s⁻¹ | 0.000214 ± 1.7e-05 s⁻¹ | 1.98e-05 ± 8.9e-06 s⁻¹ | 4.38e-05 ± 8.4e-06 s⁻¹
17 | C16U U65G C67G | 0.0015 ± 8.8e-05 s⁻¹ | 1420 ± 160 µM | 0.000493 ± 0.00013 s⁻¹ | 0.000981 ± 0.00024 s⁻¹ | 0.00128 ± 0.00032 s⁻¹ | 3.76e-05 ± 1.7e-05 s⁻¹ | –
18 | C10G A15G | 1.16e-05 ± 4e-06 s⁻¹ | – | – | – | – | – | –
19 | C16U G66U | 0.00129 ± 0.00016 s⁻¹ | 1550 ± 340 µM | 0.000375 ± 4.5e-05 s⁻¹ | 0.000956 ± 0.00011 s⁻¹ | 0.00105 ± 0.00011 s⁻¹ | 3.86e-05 ± 7.8e-06 s⁻¹ | 9.95e-05 ± 2e-05 s⁻¹
20 | U31A C70U | 0.0129 ± 0.0056 s⁻¹ | – | 0.00235 ± 0.00031 s⁻¹ | 0.0115 ± 0.0032 s⁻¹ | 0.0113 ± 0.0017 s⁻¹ | 0.000386 ± 5.3e-05 s⁻¹ | 0.000843 ± 0.00019 s⁻¹
21 | C11U U30G | 0.00224 ± 0.00076 s⁻¹ | – | 0.000444 ± 7.4e-05 s⁻¹ | 0.00185 ± 0.00033 s⁻¹ | 0.00194 ± 0.00021 s⁻¹ | 0.0001 ± 1.4e-05 s⁻¹ | 0.00018 ± 2.9e-05 s⁻¹
22 | G29C U30A | 0.000322 ± 1.4e-05 s⁻¹ | 2880 ± 230 µM | 5.97e-05 ± 1.4e-05 s⁻¹ | 0.000141 ± 3.8e-05 s⁻¹ | 0.000253 ± 4.6e-05 s⁻¹ | – | –
23 | U49C C67U | 1e-05 ± 1e-06 s⁻¹ | 267 ± 130 µM | – | – | – | – | –
24 | A12C A33U | 0.000132 ± 1.7e-05 s⁻¹ | 3330 ± 1200 µM | – | 6.22e-05 ± 7.4e-06 s⁻¹ | 9.81e-05 ± 6.4e-06 s⁻¹ | – | –
25 | A12G A15U | 0.000449 ± 5.3e-05 s⁻¹ | 5850 ± 1100 µM | 4.86e-05 ± 6.8e-06 s⁻¹ | 0.000123 ± 1.6e-05 s⁻¹ | 0.000288 ± 2.6e-05 s⁻¹ | – | –
26 | U65G U69C | 0.00467 ± 0.0019 s⁻¹ | – | 0.000431 ± 8.3e-05 s⁻¹ | 0.00108 ± 0.00019 s⁻¹ | 0.00297 ± 0.0005 s⁻¹ | – | 0.000177 ± 4.5e-05 s⁻¹
27 | G13C A39U | 6.85e-05 ± 4.7e-06 s⁻¹ | 4180 ± 820 µM | – | 2.64e-05 ± 1e-05 s⁻¹ | 4.82e-05 ± 7.1e-06 s⁻¹ | < 1e-05 s⁻¹ | –
28 | C10U G32A | 2.81e-05 ± 1.1e-06 s⁻¹ | – | – | 2.53e-05 ± 9.9e-06 s⁻¹ | 2.81e-05 ± 7.9e-06 s⁻¹ | < 1e-05 s⁻¹ | –
29 | A36C C68A | 1.33e-05 ± 2.1e-06 s⁻¹ | – | – | – | – | – | –
30 | A14U U45G | 0.00111 ± 0.00014 s⁻¹ | 1850 ± 400 µM | 0.00033 ± 5.4e-05 s⁻¹ | 0.000633 ± 0.00013 s⁻¹ | 0.000917 ± 0.00013 s⁻¹ | – | 8.17e-05 ± 2.1e-05 s⁻¹
